Target: Myc-tagged full-length TCF4 (human, UniProt Q9NQB0-8 1-596)
Assay: cell-based or functional assay

Chain of Myc-tagged full-length TCF4 (Q9NQB0 other isoform, or with tags, fused parts or gaps): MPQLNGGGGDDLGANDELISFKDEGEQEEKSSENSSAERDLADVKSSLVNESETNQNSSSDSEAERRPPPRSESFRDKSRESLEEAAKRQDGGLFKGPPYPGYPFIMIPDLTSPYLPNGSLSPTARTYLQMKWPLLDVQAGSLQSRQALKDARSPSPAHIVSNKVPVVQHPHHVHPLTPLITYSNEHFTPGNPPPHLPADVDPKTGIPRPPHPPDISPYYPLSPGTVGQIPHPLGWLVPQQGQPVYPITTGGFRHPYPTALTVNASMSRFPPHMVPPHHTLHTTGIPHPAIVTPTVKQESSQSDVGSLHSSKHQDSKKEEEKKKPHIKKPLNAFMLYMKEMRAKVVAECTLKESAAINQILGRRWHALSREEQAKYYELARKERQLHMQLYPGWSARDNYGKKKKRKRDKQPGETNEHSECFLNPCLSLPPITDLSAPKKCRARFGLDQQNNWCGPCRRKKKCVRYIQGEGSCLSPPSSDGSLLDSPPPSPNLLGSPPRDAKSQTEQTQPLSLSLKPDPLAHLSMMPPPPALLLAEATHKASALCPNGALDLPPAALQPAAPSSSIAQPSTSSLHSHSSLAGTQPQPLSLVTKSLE

B1: HA-epitope-tagged GRG5/AES (natural protein, human, UniProt Q08117 1-197, looked up)
chain: MMFPQSRHSGSSHLPQQLKFTTSDSCDRIKDEFQLLQAQYHSLKLECDKLASEKSEMQRHYVMYYEMSYGLNIEMHKQAEIVKRLNGICAQVLPYLSQEHQQQVLGAIERAKQVTAPELNSIIRQQLQAHQLSQLQALALPLTPLPVGLQPPSLPAVSAGTGLLSLSALGSQAHLSKEDKNGHDGDTHQEDDGEKSD
For B1, the “TCF-Luc luciferase reporter in HEK293 cells with transfected β-catenin: repression on co-transfection of GRG5/AES and dnTCF4 plasmids (0.4 µg each), against a 6.3-fold additive effect of each alone” value was 22.5 fold.

Source: publication PMC3698143, “GRG5/AES Interacts with T-Cell Factor 4 (TCF4) and Downregulates Wnt Signaling in Human Cells and Zebrafish Embryos” (PLoS ONE, 2013)
